Assay results from IntAct's records for PubMed 20059542.

B1: 26S proteasome non-ATPase regulatory subunit 4 homolog (Arabidopsis thaliana (Mouse-ear cress)), P55034 (parent)
chain: MVLEATMICIDNSEWMRNGDYSPSRLQAQTEAVNLLCGAKTQSNPENTVGILTMAGKGVRVLTTPTSDLGKILACMHGLDVGGEINLTAAIQIAQLALKHRQNKNQRQRIIVFAGSPIKYEKKALEIVGKRLKKNSVSLDIVNFGEDDDEEKPQKLEALLTAVNNNDGSHIVHVPSGANALSDVLLSTPVFTGDEGASGYVSAAAAAAAAGGDFDFGVDPNIDPELALALRVSMEEERARQEAAAKKAADEAGQKDKDGDTASASQETVARTTDKNAEPMDEDSALLDQAIAMSVGDVNMSEAADEDQDLALALQMSMSGEESSEATGAGNNLLGNQAFISSVLSSLPGVDPNDPAVKELLASLPDESKRTEEEESSSKKGEDEKK
B2: 26S proteasome regulatory subunit RPN13 (Saccharomyces cerevisiae), O13563 (parent)
chain: MSMSSTVIKFRAGVCEYNEDSRLCTPIPVQGEIEIKPNEEEELGFWDFEWRPTEKPVGRELDPISLILIPGETMWVPIKSSKSGRIFALVFSSNERYFFWLQEKNSGNLPLNELSAKDKEIYNKMIGVLNNSSESDEEESNDEKQKAQDVDVSMQD
B3: Ubiquitin domain-containing protein DSK2b (Arabidopsis thaliana (Mouse-ear cress)), Q9SII8 (parent)
chain: MGGEGDSSQPQSGEGEAVAVNIRCSNGTKFSVKTSLDSTVESFKELVAQSSDVPANQQRLIYKGRILKDDQTLLSYGLQADHTIHMVRGSAPSSAPPPAPAASQTTAPSVTRGVGSDNSSNLGGASPGESLFPGLGFNPLGGGNAMSGLFGAGLPDLVQTQQQLAQNPNMIRDMMNTPAIQNLMNNPEFMRSMIMNNPQMRELVDRNPELGHVLNDPSILRQTLEAARNPELMREMMRNTDRAMSNIESMPEGFNMLRRMYENVQEPLMNATTMSGNAGNNTGSNPFAALLGNQGVTTQGSDASNNSSTPNAGTGTIPNANPLPNPWGATGGQTTAPGRTNVGGDARSPGLGGLGGLGSLGGLGGLGMLGADSPLGATPDASQLSQLLQNPAISQMMQSVFSNPQYMNQLMSLNPQLRSMLDSNPQLREMMQNPDFLRQFSSPEMMQQMMTLQQSLSQNRNTASQDAGQTGAATGNNGGLDLLMNMFGSLGAGGLSGTNQSNVPPEERYATQLQQLQEMGFYDRAENIRALLATNGNVNAAVERLLGSIGQ
B4: 26S proteasome non-ATPase regulatory subunit 4 (Homo sapiens), P55036 (parent)
chain: MVLESTMVCVDNSEYMRNGDFLPTRLQAQQDAVNIVCHSKTRSNPENNVGLITLANDCEVLTTLTPDTGRILSKLHTVQPKGKITFCTGIRVAHLALKHRQGKNHKMRIIAFVGSPVEDNEKDLVKLAKRLKKEKVNVDIINFGEEEVNTEKLTAFVNTLNGKDGTGSHLVTVPPGPSLADALISSPILAGEGGAMLGLGASDFEFGVDPSADPELALALRVSMEEQRQRQEEEARRAAAASAAEAGIATTGTEDSDDALLKMTISQQEFGRTGLPDLSSMTEEEQIAYAMQMSLQGAEFGQAESADIDASSAMDTSEPAKEEDDYDVMQDPEFLQSVLENLPGVDPNNEAIRNAMGSLASQATKDGKKDKKEEDKK
partner: B3 chain
B5: 26S proteasome non-ATPase regulatory subunit 4 (Homo sapiens), P55036 (parent)
chain: B4 chain

Variants of: B1
Details: with dsk2_yeast DSK2, P48510
Target sequence in this assay (P48510 whole entry): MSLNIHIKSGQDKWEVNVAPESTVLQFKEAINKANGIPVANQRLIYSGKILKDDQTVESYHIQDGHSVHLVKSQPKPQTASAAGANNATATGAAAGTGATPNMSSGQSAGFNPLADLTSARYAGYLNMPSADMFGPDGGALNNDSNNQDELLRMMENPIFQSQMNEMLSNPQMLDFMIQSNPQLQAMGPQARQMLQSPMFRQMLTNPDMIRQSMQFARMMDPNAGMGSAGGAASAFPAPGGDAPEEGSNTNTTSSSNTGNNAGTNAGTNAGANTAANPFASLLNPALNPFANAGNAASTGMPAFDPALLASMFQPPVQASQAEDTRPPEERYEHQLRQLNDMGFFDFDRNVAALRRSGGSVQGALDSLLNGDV
With L286N;L287N;Q289N;A290D;L310N;A311N;L312N;A313D;L314N the “effect of a mutation on the interaction” value was “with no effect”. In the case of L286N;L287N;Q289N;A290D, the “effect of a mutation on the interaction” value is reported as “with no effect”.

Variants of: B1
Details: with ubql2_human UBQLN2, Q9UHD9
Target sequence in this assay (Q9UHD9 whole entry): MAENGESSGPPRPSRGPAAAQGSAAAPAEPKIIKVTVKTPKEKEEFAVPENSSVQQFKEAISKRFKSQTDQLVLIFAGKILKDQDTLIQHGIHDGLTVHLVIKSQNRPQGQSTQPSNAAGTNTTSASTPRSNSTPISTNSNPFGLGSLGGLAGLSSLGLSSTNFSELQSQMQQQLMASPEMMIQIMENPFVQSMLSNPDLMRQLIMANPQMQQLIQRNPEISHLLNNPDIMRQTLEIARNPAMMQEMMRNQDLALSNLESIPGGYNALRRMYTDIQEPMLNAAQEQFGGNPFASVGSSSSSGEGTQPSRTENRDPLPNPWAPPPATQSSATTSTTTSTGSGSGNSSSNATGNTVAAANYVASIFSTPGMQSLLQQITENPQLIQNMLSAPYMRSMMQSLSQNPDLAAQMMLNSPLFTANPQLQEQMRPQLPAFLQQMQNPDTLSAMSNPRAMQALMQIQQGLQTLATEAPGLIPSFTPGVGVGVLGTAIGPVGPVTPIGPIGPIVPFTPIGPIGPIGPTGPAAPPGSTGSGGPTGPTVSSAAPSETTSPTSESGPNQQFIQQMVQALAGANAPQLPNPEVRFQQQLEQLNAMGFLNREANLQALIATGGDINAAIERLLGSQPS
In the case of L286N;L287N;Q289N;A290D;L310N;A311N;L312N;A313D;L314N, the “effect of a mutation on the interaction” value is reported as “with no effect”. For L286N;L287N;Q289N;A290D, the “effect of a mutation on the interaction” value was “with no effect”.

Variants of: B1
Details: with rd23b_human RAD23B
Target sequence in this assay (P54727 whole entry): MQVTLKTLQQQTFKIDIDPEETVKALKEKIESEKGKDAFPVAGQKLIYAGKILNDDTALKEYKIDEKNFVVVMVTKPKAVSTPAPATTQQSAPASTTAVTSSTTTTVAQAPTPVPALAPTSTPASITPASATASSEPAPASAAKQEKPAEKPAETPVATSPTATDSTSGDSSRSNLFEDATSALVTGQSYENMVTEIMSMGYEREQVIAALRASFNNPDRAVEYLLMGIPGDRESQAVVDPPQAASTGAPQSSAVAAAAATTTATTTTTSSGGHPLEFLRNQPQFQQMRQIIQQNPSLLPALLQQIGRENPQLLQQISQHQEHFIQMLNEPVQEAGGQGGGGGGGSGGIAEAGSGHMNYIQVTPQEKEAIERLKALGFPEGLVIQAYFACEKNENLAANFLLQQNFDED
In the case of L286N;L287N;Q289N;A290D;L310N;A311N;L312N;A313D;L314N, the “effect of a mutation on the interaction” value is reported as “disrupting interaction strength”. L286N;L287N;Q289N;A290D was tested, and the “effect of a mutation on the interaction” value was “with no effect”. For L226D;A227D;L228D;A229D;L230D;L286N;L287N;Q289N;A290D, the “effect of a mutation on the interaction” value was “decreasing interaction strength”. L226D;A227D;L228D;A229D;L230D;L310N;A311N;L312N;A313D;L314N was tested, and the “effect of a mutation on the interaction” value was “disrupting interaction strength”.

Variants of: B2
Details: with dsk2_yeast DSK2, P48510
For L43A, the “effect of a mutation on the interaction” value was “decreasing interaction”.

Variants of: B2
Details: with dsk2_yeast DSK2, P48510
Remark: another data set of the same source
F91R was tested, and the “effect of a mutation on the interaction” value was “disrupting interaction”.

Variants of: B2
Details: with dsk2_yeast DSK2, P48510
Remark: another data set of the same source
E72Q was tested, and the “effect of a mutation on the interaction” value was “disrupting interaction”.

Variants of: B3
Details: with rpn13_arath RPN13, O48726
Chain of rpn13_arath RPN13, O48726 (O48726 whole entry): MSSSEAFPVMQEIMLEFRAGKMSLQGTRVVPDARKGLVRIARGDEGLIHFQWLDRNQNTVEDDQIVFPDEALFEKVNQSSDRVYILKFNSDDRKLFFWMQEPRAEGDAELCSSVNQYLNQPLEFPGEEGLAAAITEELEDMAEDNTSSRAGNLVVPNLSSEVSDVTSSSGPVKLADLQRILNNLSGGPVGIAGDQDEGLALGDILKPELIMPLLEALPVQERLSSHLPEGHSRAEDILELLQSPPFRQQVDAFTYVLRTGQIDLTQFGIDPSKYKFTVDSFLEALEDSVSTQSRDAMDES
For I61A, the “effect of a mutation on the interaction” value was “disrupting interaction”.

Variants of: B4
Details: with dsk2b_arath DSK2B
In the case of L216N;A217N;L218N;A219N;L220N, the “effect of a mutation on the interaction” value is reported as “with no effect”. In the case of L216N;A217N;L218N;A219N;L220N;I287N;A288N;Y289N;A290N;M291N, the “effect of a mutation on the interaction” value is reported as “disrupting interaction strength”. I287N;A288N;Y289N;A290N;M291N was tested, and the “effect of a mutation on the interaction” value was “disrupting interaction strength”.

Variants of: B5
Details: with ubql1_human UBQLN1, Q9UMX0
Chain of ubql1_human UBQLN1, Q9UMX0 (Q9UMX0 whole entry): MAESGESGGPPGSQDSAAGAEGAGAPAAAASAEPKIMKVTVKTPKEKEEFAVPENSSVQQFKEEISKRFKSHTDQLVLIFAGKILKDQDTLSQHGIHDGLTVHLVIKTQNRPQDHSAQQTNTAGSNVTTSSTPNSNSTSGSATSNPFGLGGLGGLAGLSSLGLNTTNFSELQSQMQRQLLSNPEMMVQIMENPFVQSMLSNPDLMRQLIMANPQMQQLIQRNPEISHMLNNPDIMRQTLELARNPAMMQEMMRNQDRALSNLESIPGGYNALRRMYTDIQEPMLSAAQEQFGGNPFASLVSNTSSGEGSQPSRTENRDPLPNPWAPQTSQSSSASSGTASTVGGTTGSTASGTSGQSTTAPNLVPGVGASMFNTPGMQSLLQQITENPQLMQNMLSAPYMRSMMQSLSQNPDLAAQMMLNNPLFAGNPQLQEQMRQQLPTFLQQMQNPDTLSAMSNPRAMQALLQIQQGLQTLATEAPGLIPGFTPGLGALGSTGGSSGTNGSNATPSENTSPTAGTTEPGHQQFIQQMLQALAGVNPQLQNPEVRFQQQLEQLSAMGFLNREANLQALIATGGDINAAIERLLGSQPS
With L216N;A217N;L218N;A219N;L220N the “effect of a mutation on the interaction” value was “decreasing interaction strength”. In the case of L216N;A217N;L218N;A219N;L220N;I287N;A288N;Y289N;A290N;M291N, the “effect of a mutation on the interaction” value is reported as “disrupting interaction strength”.

Variants of: B5
Details: with ubql2_human UBQLN2, Q9UHD9
Target sequence in this assay (Q9UHD9 whole entry): as the sequence (Q9UHD9 whole entry) above
In the case of L216N;A217N;L218N;A219N;L220N, the “effect of a mutation on the interaction” value is reported as “with no effect”. In the case of L216N;A217N;L218N;A219N;L220N;I287N;A288N;Y289N;A290N;M291N, the “effect of a mutation on the interaction” value is reported as “disrupting interaction strength”.

Variants of: B5
Details: with dsk2_yeast DSK2, P48510
Target sequence in this assay (P48510 whole entry): as the sequence (P48510 whole entry) above
For L216N;A217N;L218N;A219N;L220N, the “effect of a mutation on the interaction” value was “disrupting interaction strength”. L216N;A217N;L218N;A219N;L220N;I287N;A288N;Y289N;A290N;M291N was tested, and the “effect of a mutation on the interaction” value was “disrupting interaction strength”.

Variants of: B5
Details: with rd23b_human RAD23B
In the case of L216N;A217N;L218N;A219N;L220N, the “effect of a mutation on the interaction” value is reported as “decreasing interaction strength”. L216N;A217N;L218N;A219N;L220N;I287N;A288N;Y289N;A290N;M291N was tested, and the “effect of a mutation on the interaction” value was “disrupting interaction strength”.
